Data taken from patent publication US20240182593A1 (YUHAN, published 2024).
Changes are numbered by the printed parent chain. Numbers in names are those of the source.

T1: mouse OX40 (ACRO, Cat. OX0-M5259) (mouse, UniProt P47741 20-211)
T1 construct: Bought protein; construct not described; also called mouse OX40 antigen
T1 sequence (looked up): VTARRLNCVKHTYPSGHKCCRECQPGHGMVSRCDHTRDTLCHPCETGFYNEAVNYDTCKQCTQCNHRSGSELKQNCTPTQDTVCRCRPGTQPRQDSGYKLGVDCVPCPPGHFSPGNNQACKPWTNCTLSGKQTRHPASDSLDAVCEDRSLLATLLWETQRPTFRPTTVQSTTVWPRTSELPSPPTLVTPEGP

T2: human OX40 protein (Sino Biological, Cat. 10481-H08H) (human, UniProt P43489 29-216)
T2 construct: Bought recombinant protein; also called CD134; TNFRSF4
T2 sequence (looked up): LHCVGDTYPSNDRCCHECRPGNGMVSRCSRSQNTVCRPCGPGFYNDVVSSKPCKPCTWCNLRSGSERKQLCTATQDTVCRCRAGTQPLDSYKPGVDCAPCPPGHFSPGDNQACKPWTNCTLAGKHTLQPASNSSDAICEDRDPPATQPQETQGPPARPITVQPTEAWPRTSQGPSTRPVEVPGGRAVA

T3: human OX40 expressed on cells (human, UniProt P43489 29-277)
T3 construct: whole, on cells
T3 sequence (looked up): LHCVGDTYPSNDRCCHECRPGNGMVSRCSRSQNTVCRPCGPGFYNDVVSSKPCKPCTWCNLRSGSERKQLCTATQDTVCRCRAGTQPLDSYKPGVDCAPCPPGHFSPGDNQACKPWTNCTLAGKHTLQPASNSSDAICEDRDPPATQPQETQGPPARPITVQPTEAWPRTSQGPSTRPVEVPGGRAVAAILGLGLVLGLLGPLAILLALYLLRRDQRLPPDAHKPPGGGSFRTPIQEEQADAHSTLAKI

B1: O410 (antibody, human IgG1, lambda, V domains shown)
VH: EVQLLESGGGLVQPGGSLRLSCAASGFTFSDYYMSWVRQAPGKGLEWVSGIYSDGSRKYYADSVKGRFTISRDNSKNTLYLQMNSLRAEDTAVYYCARHWSRFDYWGQGTLVTVSS
VL: QSVLTQPPSASGTPGQRVTISCSGSSSNIGSNYVTWYQQLPRTAPKLLIYYDSNRPSGVPDRFSGSKSGTSASLAISGLRSEDEADYYCGAWDDSLSGYVFGGGTKLTVLG
B2: O31C (antibody, human IgG1, lambda, V domains shown)
VH: EVQLLESGGGLVQPGGSLRLSCAASGFTFSDYDMSWVRQAPGKGLEWVSSISPSSGSIYYADSVKGRFTISRDNSKNTLYLQMNSLRAEDTAVYYCAKDSIWCTNSRCYYDNAMDVWGQGTLVTVSS
VL: B1 VL with S31N, Y33A, T35S, R42G, Y51S, A91S, D94Y, G98A
B3: O212 (antibody, V domains shown)
VH: EVQLLESGGGLVQPGGSLRLSCAASGFTFSDYAMSWVRQAPGKGLEWVSWIYYDSGSKYYADSVKGRFTISRDNSKNTLYLQMNSLRAEDTAVYYCAKGPGPNGQLAFDYWGQGTLVTVSS
VL: B1 VL with S23T, Y33S, T35S, R42G, Y51A, D52N, N54H, D94Y
notes: also called O212 antibody
B4: O34 (antibody, V domains shown)
VH: B1 VH with Y52S, D54S, S56G, R57N, S101K
VL: QSVLTQPPSASGTPGQRVTISCTGPSSNIGNNDVSWYQQLPGTAPKLLIYANSNRPSGVSDRFSGSKSGTSASLAISGLRSEDEADYYCGTWDYSLSGYVLGGGTKLTVLG
B5: O32 (antibody, V domains shown)
VH: B1 VH with D31S, Y33S, G50V, Y52S, D54G, S56G, R57S, K58T, S101R, R102Y
VL: B1 VL with S31N, T35S, R42G, Y51A, N54K, D94S
B6: O35 (antibody, V domains shown)
VH: B1 VH with Y33S, G50A, Y52S, S56G, R57S, K58T, H99R, S101Q, R102T
VL: B1 VL with S23T, Y33A, T35S, R42G, Y51H, N54H, R55P, D94S
B7: O15 (antibody, V domains shown)
VH: B1 VH with D31S, Y33S, G50M, Y52S, D54G, S56G, R57S, K58T, S101R, R102Y
VL: B1 VL with S31N, T35S, R42G, Y51A, N54K, D94S
B8: OX40L-Fc protein (ACROBiosystems, Cat #. OX0-H5255) (Fc fusion, UniProt P23510 51-183, looked up)
chain: QVSHRYPRIQSIKVQFTEYKKEKGFILTSQKEDEIMKVQNNSVIINCDGFYLISLKGYFSQEVNISLHYQKDEEPLFQLKKVRSVNSLMVASLTYKDKVYLNVTTDNTSLDDFHVNGGELILIHQNPGEFCVL
notes: Bought; not shown: Fc part of the bought fusion protein

Target: T1, mouse OX40 (ACRO, Cat. OX0-M5259)
Assay: ELISA, mouse OX40 coated at 0.5 ug/ml, serially diluted antibody, goat anti-human Fab secondary antibody, O.D. 450 nm
Experimental: (§1) To determine the cross-species reactivity of anti-OX40 antibodies to mouse and cynomolgus (Cyno) monkey OX40, mouse OX40 (ACRO, Cat. OX0-M5259) and cynomolgus monkey OX40 (R&D, Cat. 10311-OX) antigens were coated on a 96-well plate at a concentration of 0.5 μg/ml, and the plate was incubated overnight at 4° C. After blocking using 3% BSA, serially diluted OX40 antibodies were treated and incubated for 1 hour at room temperature. Goat anti-human Fab (Jackson ImmunoResearch, Cat. 109-036-097) was diluted 1: 5000 and used as a secondary antibody for detection. Absorbance at 450 nm was read using a microplate reader (Molecular Device). To determine EC50 values for dose-dependent binding of OX40 binding antibodies in mice and cynomolgus monkeys, dose-response data were analyzed using a 4-parameter logistic model with GraphPad Prism.

Row | binding result | Binder
1 | no binding (tested: about 25000 pM) | B1

Target: T2, human OX40 protein (Sino Biological, …)
Assay: SPR (BIACORE T200), antibody captured on protein A chip, human OX40 as analyte, 1:1 model
Experimental: (§2) Quantitative analysis of antigen binding of the OX40-binding antibody prepared in Example 1.3 was performed using a BIACORE T200. The experimental conditions using surface plasmon resonance (SPR) were as follows: Protein A-immobilized CM5 chip (GE Healthcare) was used. 10 mM Glycine-HCl (pH 1.5) was used as the regeneration buffer, and HBS-EP (pH 7.4) was used as the running buffer, antibody dilution, and antigen dilution buffer. OX40-binding antibody was diluted with HBS-EP (pH 7.4), and human OX40 protein (Sino Biological, Cat. 10481-H08H) was serially diluted two-fold from 200 nM. Analysis was performed at all 11 concentrations (200, 100, 50, 25, 12.5, 6.25, 3.13, 1.56, 0.78, 0.39, 0 nM) including 0 nM. First, the OX40-binding antibody was captured on a chip immobilized with protein A (Thermo, Cat. 21184). In the association phase of human OX40 protein, the association time was set to 400-600 seconds and the flow rate was set to 30 μL/min. In the dissociation phase, the dissociation time was set to 400-2000 seconds and the flow rate was set to 30 μL/min. In the regeneration phase, the flow rate was set to 100 μL/min, and the flow time was set to 30 seconds. By using BIACORE Evaluation software, the data were analyzed and fitted in a 1:1 binding model.

Row | Kd [nM] | koff [s⁻¹] | kon [M⁻¹ s⁻¹] | Binder
2 | 122 | 0.00238 | – | B2
3 | 1.24 | 4.17e-05 | – | B1
4 | 24.4 | 0.00167 | 68300 | B3
5 | 2.4 | 5.63e-05 | – | B4
6 | 2.05 | 4.13e-05 | – | B5
7 | 19.9 | 0.000203 | – | B6

Target: T2, human OX40 protein (Sino Biological, …)
Assay: ELISA, human OX40 protein coated at 0.1 ug/ml, serially diluted antibody, HRP secondary antibody, O.D. 450 nm
Experimental: (§3) ELISA was performed to quantitatively analyze the antigen-binding activity of the OX40-binding antibody prepared in Example 1.3 to the antigen.
(§4) More specifically, the antigen human OX40 protein (Sino Biological, Cat. 10481-H08H) was added to a 96-well plate (Thermo Scientific, Cat. 469949) at a concentration of 0.1 μg/ml, and coated overnight at 4° C. Here, 200 μl of 3% BSA (Millipore, Cat. 820451) was placed in each well and blocked at room temperature for 2 hours. The OX40-binding antibody (Example 1.3) serially diluted 4-fold from 100 nM was added thereto and reacted at room temperature for 2 hours. After washing 4 times with 300 μl of PBS/Tween-20, HRP-bound secondary antibody (Abcam, Cat. Ab98624) was treated and reacted at room temperature for 1 hour. Then, it was washed 4 times with 300 μl of PBS/Tween-20. Following 100 μl of TMB was added thereto to develop color, 100 μl of 2 N H₂SO₄ was added to stop the reaction. The absorbance was measured at 450 nm using a microplate reader (Perkin Elmer, Victor X5).

Row | EC50 (read off the curve) [pM] | Binder
8 | ~30 | B2

Target: T3, human OX40 expressed on cells
Assay: flow cytometry on activated human CD4+ T cells, fitted MFI curve
Experimental: (§5) The activity of the OX40-binding antibody prepared in Example 1.3 to bind to activated human T cells was tested as follows.
(§6) To induce OX40 expression, cells were activated for several days prior to the binding assay. Briefly, human CD4⁺ T cells ([…] Technologies) were cultured in the presence of IL-2 (Roche Life Sciences, Indianapolis, IN) and phytohemaglutinin-leucoagglutinin (PHA-L; Roche Life Sciences, Indianapolis, IN) at a concentration of 10 μg/ml for 2 days to activate the human CD4⁺ T cells. The activated CD4⁺ T cells were incubated with OX40-binding antibody serially diluted 5-fold from 1 μM. The bound antibody was detected with a fluorescently labeled anti-human IgG polyclonal secondary antibody, and cells were stained with FITC mouse anti-human CD134 (OX40) antibody clone ACT35 (BD Pharmingen) to detect CD4⁺ T cells expressing OX40. Fluorescence intensity of staining was measured using a BD FACSCantoII flow cytometry analyzer. Mean fluorescence intensity (MFI) of OX40-binding antibody staining was calculated using FlowJo software.

Row | Bottom | Top | Binder
9 | 7.36 | 102 | B7
10 | 1.04 | 95.9 | B1
11 | 5.53 | 99.4 | B3
12 | 5.77 | 99.9 | B4
13 | 7.69 | 102 | B5
14 | -0.361 | 97.3 | B6

Target: T3, human OX40 expressed on cells
Assay: flow cytometry on activated human CD4+ T cells
Experimental: as §5, §6

Row | EC50 [nM] | Binder
15 | 2.65 | B7
16 | 0.253 | B1
17 | 2.17 | B3
18 | 0.182 | B4
19 | 0.102 | B5
20 | 1.22 | B6

Target: T2, human OX40 protein (Sino Biological, …)
Assay: ELISA, human OX40 protein coated at 0.1 ug/ml, antibody diluted 4-fold from 100 nM, HRP secondary antibody, O.D. 450 nm
Experimental: as §3, §4

Row | EC50 (read off the curve) [pM] | Binder
21 | ~200 | B7
22 | ~30 | B1
23 | ~5 | B4
24 | ~1 | B5
25 | ~6 | B6

Target: T4, cynomolgus monkey OX40 (R&D, Cat. 10311-OX) (cynomolgus monkey)
T4 construct: Bought protein; construct not described; also called Cynomolgus monkey OX40 antigen; Cyno OX40
Assay: ELISA, cynomolgus monkey OX40 coated at 0.5 ug/ml, serially diluted antibody, goat anti-human Fab secondary antibody, O.D. 450 nm
Experimental: as §1

Row | EC50 (read off the curve) [pM] | Binder
26 | ~80 | B2
27 | ~20 | B1
28 | ~20 | B3
29 | ~20 | B4
30 | ~200 | B5

Target: T2, human OX40 protein (Sino Biological, …)
Assay: SPR (BIACORE T200), same test as for the antibodies (capture on protein A chip, human OX40 as analyte), 1:1 model
Experimental: as §2

Row | koff [s⁻¹] | Binder
31 | 0.00119 | B8
